In PMC9826837 (The Journal of Biological Chemistry, 2022):

Target: rat cardiac troponin I (cTnI), Ser22/23 bisphosphorylated (rat, UniProt P23693 1-211, phosphoserine at 22 and 23)
Assay: SEC-MALS

B1: rat cardiac troponin T (cTnT) (natural protein)
chain: not shown
For B1, the “stoichiometry N” value was 1.
